Entries after “also recorded” stand apart in the source; their conditions may differ.

This is an account of results in patent US7700101B2, “Reagents and method for modulating Dkk-mediated interactions” (Wyeth, priority 2001, dated 2010).

The subject of one test is canonical Wnt pathway. Nature of the test: Xenopus embryo assay, hDkk-1 dose-response (enlarged anterior structures). Type of test: in vivo. The following applies: 250 pg/embryo hDkk-1 RNA; FIG. 10. As to the method: (§1) mRNA for microinjection into Xenopus embryos is generated by in vitro transcription using the CDNA constructs in the pCS2^+ vector described above as template. RNA is synthesized using the Ambion mMessage mMachine high yield capped RNA transcription kit (Cat. #1340) following the manufacturer's specifications for the Sp6 polymerase reactions. RNA products were brought up to a final volume of 50 μl in sterile, glass-distilled water and purified over Quick Spin-Columns for Radiolabelled RNA Purification G50-Sephadex (Roche, Cat. #1274015) following the manufacturer's specifications. The resulting eluate was finally extracted with phenol:chloroform:isoamyl alcohol and isopropanol precipitated using standard protocols (Sambrook et al., 1989). Final RNA volumes were approximately 50 μl. RNA concentration was determined by absorbance values at 260 nm and 280 nm. RNA integrity was visualized by ethidium bromide staining of denaturing (formaldehyde) agarose gel electrophoresis (Sambrook et al., 1989). Various amounts of RNA (2 pg to 1 ng) are injected into the ventral blastomere of the 4- or 8-cell Xenopus embryo. These protocols are described in Moon et al., Technique-J. of Methods in Cell and Mol. Biol. 1: 76-89 (1989), and Peng, Meth. Cell. Biol. 36: 657-62 (1991). […]

Test [1] deals with Zmax/LRP5-mediated Wnt signaling. Nature of the test: Xenopus embryo assay, hDkk-1 modulation of Zmax/LRP5+Wnt5a signaling. It counts as in vivo. The following applies: hDkk-1 250 pg, FIG. 11. As to the method:
as §1

A further test relates to endogenous LRP5/6. Put plainly: Cell-based TCF reporter high-throughput assay, endogenous LRP5/6. The following applies: U2OS cells, no Wnt3a/Wnt1 transfection, FIG. 21. Details: species or system human. From the text:
To develop a high throughput assay, the TCF-luciferase assay described in Example 7 was modified utilizing low level expression of endogenous LRP5/6 in U2OS and HEK293 cells. […] Using U2OS (human osteosarcoma) and HEK293 (ATCC) cells, the TCF-luciferase and tk-Renilla reporter element constructs were co-transfected along with Wnt3a/1 and Dkk.

In the next test the target is T1, LRP5 (Homo sapiens, UniProt O75197).
T1 construct: Site-directed mutants of LRP5 were generated in the full-length human LRP5 cDNA; expressed in transfected cells; host or cells: HOB-03-CE6 osteoblastic cells; U2OS osteosarcoma cells; HEK293
Put plainly: Cell-based TCF reporter high-throughput assay, LRP5 cDNA. The following applies: U2OS cells, Wnt1 or Wnt3a/Wnt1 co-transfected, FIG. 20. From the text:
(§2) To develop a high throughput assay, the TCF-luciferase assay described in Example 7 was modified utilizing low level expression of endogenous LRP5/6 in U2OS and HEK293 cells. However, HOB-03-CE6 cells and any other cells which show a differential response to Dkk depending on whether LRP5, LRP6 or HBM are expressed. Using U2OS (human osteosarcoma) and HEK293 (ATCC) cells, the TCF-luciferase and tk-Renilla reporter element constructs were co-transfected along with Wnt3a/1 and Dkk. Wnt3a alone, by using endogenous LRP5/6, was able to stimulate TCF reporter gene activation. When Dkk, is co-transfected with Wnt3a/Wnt 1 and reporters (TCF-luci and tk-Renilla), DEkk represses reporter element activity. In addition, the TCF-luci signal is activated by Wnt3a/Wnt1 can be repressed by the addition of Dkk-enriched conditioned media to the cells containing Wnt3a/Wnt1 and reporters.
(§3) The Dkk-mediated repression of the reporter is dependent upon the concentration of transfected Dkk cDNA or on the amount of Dkk-conditioned media added. In addition, the Dkk-mediated reporter suppression can be altered by the co-transfection of LRP5, LRP6, and HBM cDNAs in the U2OS or HEK293 cells. In general, U2OS cells show greater sensitivity to Dkk-mediated reporter suppression than that in HEK-293 cells. […]

The next test addresses T2, HBM (Homo sapiens, UniProt O75197, G171V).
T2 construct: Full length Zmax/LRP5 and HBM ORF cDNA; expressed in transfected cells; host or cells: HOB-03-CE6 osteoblastic cells; U2OS osteosarcoma cells; HEK293
Put plainly: Cell-based TCF reporter high-throughput assay, HBM cDNA. The following applies: U2OS cells, Wnt1 or Wnt3a/Wnt1 co-transfected, FIG. 20.
Text: as §2, §3

The test system of a further test is canonical Wnt signaling. The following applies: Bafico et al.; Dkk-1 added at 30 pM; cited from earlier work.
The next test deals with LRP6 (Homo sapiens, UniProt O75581). Nature of the test: Cell-based TCF reporter high-throughput assay, LRP6 cDNA. The following applies: U2OS cells, Wnt1 or Wnt3a/Wnt1 co-transfected, FIG. 20. More on the design: Full length LRP6 was isolated from the pED6dpc4 vector; expressed in transfected cells; host or cells: HOB-03-CE6 osteoblastic cells; U2OS osteosarcoma cells; HEK293.
Text: as §2, §3

T2 sequence (O75197 32-1615 G171V): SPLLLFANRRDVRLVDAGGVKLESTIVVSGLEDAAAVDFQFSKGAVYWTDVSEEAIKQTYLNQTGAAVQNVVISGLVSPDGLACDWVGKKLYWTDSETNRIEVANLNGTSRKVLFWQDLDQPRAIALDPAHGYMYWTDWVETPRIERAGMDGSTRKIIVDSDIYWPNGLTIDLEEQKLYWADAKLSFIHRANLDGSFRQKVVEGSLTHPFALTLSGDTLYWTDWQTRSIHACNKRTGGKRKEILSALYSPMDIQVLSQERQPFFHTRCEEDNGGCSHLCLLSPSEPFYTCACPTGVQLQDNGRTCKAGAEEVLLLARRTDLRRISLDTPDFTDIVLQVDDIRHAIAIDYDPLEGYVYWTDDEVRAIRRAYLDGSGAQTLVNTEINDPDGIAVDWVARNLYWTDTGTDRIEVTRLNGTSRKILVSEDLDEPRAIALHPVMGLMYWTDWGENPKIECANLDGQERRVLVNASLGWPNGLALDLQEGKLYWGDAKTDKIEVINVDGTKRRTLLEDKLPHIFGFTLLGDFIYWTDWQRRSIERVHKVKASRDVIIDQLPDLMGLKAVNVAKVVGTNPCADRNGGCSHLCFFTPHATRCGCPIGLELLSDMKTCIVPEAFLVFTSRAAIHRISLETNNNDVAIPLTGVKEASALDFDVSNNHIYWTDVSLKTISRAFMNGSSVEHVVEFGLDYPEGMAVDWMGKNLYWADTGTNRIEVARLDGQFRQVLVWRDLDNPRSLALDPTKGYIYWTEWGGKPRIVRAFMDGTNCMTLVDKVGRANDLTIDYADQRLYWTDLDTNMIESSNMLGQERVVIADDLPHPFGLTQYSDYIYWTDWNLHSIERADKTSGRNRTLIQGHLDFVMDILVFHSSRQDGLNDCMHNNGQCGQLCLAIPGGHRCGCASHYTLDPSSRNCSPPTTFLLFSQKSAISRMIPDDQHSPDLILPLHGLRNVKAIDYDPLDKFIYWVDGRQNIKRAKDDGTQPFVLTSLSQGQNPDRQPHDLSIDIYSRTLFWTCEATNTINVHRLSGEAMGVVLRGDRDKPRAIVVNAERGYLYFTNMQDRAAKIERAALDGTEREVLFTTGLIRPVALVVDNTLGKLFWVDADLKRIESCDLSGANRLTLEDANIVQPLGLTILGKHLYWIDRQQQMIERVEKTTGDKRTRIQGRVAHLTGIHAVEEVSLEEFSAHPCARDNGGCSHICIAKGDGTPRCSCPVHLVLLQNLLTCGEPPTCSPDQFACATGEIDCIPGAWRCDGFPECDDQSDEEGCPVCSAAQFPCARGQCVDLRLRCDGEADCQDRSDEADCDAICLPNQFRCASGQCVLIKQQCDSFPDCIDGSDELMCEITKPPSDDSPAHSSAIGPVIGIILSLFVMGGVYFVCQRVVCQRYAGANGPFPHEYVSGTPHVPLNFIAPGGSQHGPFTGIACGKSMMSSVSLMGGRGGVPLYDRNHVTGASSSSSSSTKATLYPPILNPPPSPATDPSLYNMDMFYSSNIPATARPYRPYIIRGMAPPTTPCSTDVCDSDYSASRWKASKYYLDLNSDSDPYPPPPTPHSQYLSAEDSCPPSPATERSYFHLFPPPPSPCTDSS
T1 sequence (O75197 32-1615): as the sequence (O75197 32-1615 G171V) above, with V140G counted along it
Sequence of LRP6 (O75581 20-1613): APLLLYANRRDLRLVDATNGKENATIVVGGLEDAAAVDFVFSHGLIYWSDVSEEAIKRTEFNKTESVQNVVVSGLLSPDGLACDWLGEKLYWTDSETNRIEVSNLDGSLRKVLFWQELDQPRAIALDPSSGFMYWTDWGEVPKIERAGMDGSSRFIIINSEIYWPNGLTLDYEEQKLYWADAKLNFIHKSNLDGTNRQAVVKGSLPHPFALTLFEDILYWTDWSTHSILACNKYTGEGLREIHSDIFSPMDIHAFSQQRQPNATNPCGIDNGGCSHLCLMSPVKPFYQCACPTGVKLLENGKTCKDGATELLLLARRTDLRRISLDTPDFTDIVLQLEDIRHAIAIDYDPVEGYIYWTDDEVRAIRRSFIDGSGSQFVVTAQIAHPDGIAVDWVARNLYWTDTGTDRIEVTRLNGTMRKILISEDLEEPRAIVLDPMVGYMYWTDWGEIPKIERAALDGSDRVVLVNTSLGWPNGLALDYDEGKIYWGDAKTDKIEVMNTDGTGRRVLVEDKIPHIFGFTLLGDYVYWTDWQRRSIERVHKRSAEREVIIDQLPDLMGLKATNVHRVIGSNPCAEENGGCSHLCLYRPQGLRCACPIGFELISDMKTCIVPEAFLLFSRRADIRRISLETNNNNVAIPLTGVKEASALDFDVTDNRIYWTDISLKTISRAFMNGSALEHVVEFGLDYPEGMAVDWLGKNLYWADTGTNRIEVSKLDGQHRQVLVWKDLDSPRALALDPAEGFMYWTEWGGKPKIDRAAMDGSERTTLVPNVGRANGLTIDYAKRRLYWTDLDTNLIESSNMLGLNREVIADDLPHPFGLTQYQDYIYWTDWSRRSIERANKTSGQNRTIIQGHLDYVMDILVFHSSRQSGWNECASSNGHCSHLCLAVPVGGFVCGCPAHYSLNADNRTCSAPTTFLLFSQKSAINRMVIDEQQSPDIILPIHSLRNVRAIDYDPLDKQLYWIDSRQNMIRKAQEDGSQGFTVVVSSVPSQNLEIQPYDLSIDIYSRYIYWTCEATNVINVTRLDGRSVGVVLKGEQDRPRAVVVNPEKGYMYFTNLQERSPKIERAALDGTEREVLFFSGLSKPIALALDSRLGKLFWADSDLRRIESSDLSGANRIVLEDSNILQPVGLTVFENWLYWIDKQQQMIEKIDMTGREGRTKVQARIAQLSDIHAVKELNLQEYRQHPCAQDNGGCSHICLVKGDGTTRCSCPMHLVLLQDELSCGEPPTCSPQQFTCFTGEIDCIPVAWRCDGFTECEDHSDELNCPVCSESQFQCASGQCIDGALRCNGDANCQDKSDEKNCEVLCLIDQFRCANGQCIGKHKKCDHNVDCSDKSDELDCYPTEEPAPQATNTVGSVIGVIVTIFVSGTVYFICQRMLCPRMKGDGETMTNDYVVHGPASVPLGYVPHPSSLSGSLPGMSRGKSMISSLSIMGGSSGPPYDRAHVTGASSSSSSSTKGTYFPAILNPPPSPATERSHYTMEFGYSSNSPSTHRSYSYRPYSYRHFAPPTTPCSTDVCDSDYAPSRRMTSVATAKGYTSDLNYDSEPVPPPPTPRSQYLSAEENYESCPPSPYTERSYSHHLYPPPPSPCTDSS

“Dkk-1: Dickkopf-1 protein, antagonist of the Wnt pathway; expressed from human cDNA (RNA or plasmid)”: the “embryos displaying enlarged anterior structures (big heads)” value in the test on canonical Wnt pathway is on record as “over 90%”. Also, the “repression of Zmax/LRP5-mediated Wnt signaling” value in test [1] is “repressed”. In addition, the “modulation of TCF signal without Wnt DNA transfection” value is “can be modulated” in the test on endogenous LRP5/6 and “can repress TCF-luci” in the test with endogenous LRP5/6 (listed as Dkk1). Also, the entries for the “Dkk-mediated repression of LRP5 signaling (TCF reporter)” value in the test with LRP5 and with LRP5 (listed as Dkk1) were “represses” and “moderate”, respectively. The “Dkk-mediated repression of HBM signaling (TCF reporter)” value with HBM was “not efficiently inhibited; also recorded: little or no effect”; with HBM (listed as Dkk1) it was “least”. Moreover, the “functional consequence of Dkk-1/LRP6 interaction on canonical Wnt signaling” value with canonical Wnt signaling is “repression of the canonical Wnt signaling”. For the same substance, the “Dkk-mediated repression of LRP6 signaling (TCF reporter)” value is “represses” in the test with LRP6 and “maximal” with LRP6 (listed as Dkk1).
